Residue numbers refer to the chain shown, from its start. Each block holds one binder with its values, some of them ahead of it.
How the values were obtained:
[1] = target: recombinant huCLDN18.2-Fc (human); assay: KinExA 4000, equilibrium in solution, antibody constant, huCLDN18.2-Fc titrated
[2] = target: His-tagged human Claudin-18.2 (human); assay: SPR, Biacore 8K, antibody captured by anti-human IgG (Fc), His-tagged human Claudin-18.2 as analyte
[3] = target: human CLDN18.2 expressed on cells (human); assay: cell-based or functional assay
[4] = target: human CLDN18.2 expressed on cells (human); assay: flow cytometry (geometric mean, Alexa Fluor 647 anti-human IgG Fc secondary) on CLDN18.2-expressing 293T cells

B1: YL-G2-B (antibody, human IgG1, kappa)
heavy: EVQLQQSGPELEKPGASVKISCKASGYSFTGYKMNWVKQSNGKSLEWIGNIDPYYGGTTYNQKFKGKATLTVDKSSSTAYMQLKSLTSEDSAVYYCARYGKGNTMDYWGQGTSVTVSSASTKGPSVFPLAPSSKSTSGGTAALGCLVKDYFPEPVTVSWNSGALTSGVHTFPAVLQSSGLYSLSSVVTVPSSSLGTQTYICNVNHKPSNTKVDKRVEPKSCDKTHTCPPCPAPELVGGPSVFLLPPKPKDTLMISRTPEVTCVVVDVSHEDPEVKFNWYVDGVEVHNAKTKPPEEQYNSTLRVVSVLTVLHQDWLNGKEYKCKVSNKALPAPIEKTISKAKGQPREPQVYTLPPSREEMTKNQVSLTCLVKGFYPSDIAVEWESNGQPENNYKTTPLVLDSDGSFFLYSKLTVDKSRWQQGNVFSCSVMHEALHNHYTQKSLSLSPGK
light: DIVMTQSPSSLTVTAGEKVTMSCKSSQSLLNSGNQKNYLTWYQQRPGQPPKLLIYWASTRESGVPVRFTGSGSGTDFTLTISSVQAEDLAVYYCQNAYIYPLTFGTGTKLELKRTVAAPSVFIFPPSDEQLKSGTASVVCLLNNFYPREAKVQWKVDNALQSGNSQESVTEQDSKDSTYSLSSTLTLSKADYEKHKVYACEVTHQGLSSPVTKSFNRGEC
Kd [1]: 1.7 nM
Kd [2]: 2.05 nM
koff [2]: 0.0014 s⁻¹
kon [2]: 686000 M⁻¹ s⁻¹

B4: reference mAb (IMAB362, Ganymed) (antibody, INN chains, looked up, V domains shown)
VH: QVQLQQPGAELVRPGASVKLSCKASGYTFTSYWINWVKQRPGQGLEWIGNIYPSDSYTNYNQKFKDKATLTVDKSSSTAYMQLSSPTSEDSAVYYCTRSWRGNSFDYWGQGTTLTVSS
VL: DIVMTQSPSSLTVTAGEKVTMSCKSSQSLLNSGNQKNYLTWYQQKPGQPPKLLIYWASTRESGVPDRFTGSGSGTDFTLTISSVQAEDLAVYYCQNDYSYPFTFGSGTKLEIKR
ADCC on KATOIII CLDN18.2 cells, LDH: EC50 (run A) [3]: 0.12 nM
ADCC on KATOIII CLDN18.2 cells, LDH: EC50 (run B) [3]: 0.22 nM
ADCC on KATOIII CLDN18.2 cells, LDH: EC50 (run C) [3]: 0.27 nM
ADCC on KATOIII CLDN18.2 cells, LDH: max (% cytotoxity) (run A) [3]: 27.9%
ADCC on KATOIII CLDN18.2 cells, LDH: max (% cytotoxity) (run B) [3]: 24.5%
ADCC on KATOIII CLDN18.2 cells, LDH: max (% cytotoxity) (run C) [3]: 24.5%
ADCC on NCI-N87 CLDN18.2 cells, LDH: EC50 (run A) [3]: 0.057 nM
ADCC on NCI-N87 CLDN18.2 cells, LDH: EC50 (run B) [3]: 0.082 nM
ADCC on NCI-N87 CLDN18.2 cells, LDH: EC50 (run C) [3]: 0.1 nM
ADCC on NCI-N87 CLDN18.2 cells, LDH: max (% cytotoxity) (run A) [3]: 26.1%
ADCC on NCI-N87 CLDN18.2 cells, LDH: max (% cytotoxity) (run B) [3]: 22.1%
ADCC on NCI-N87 CLDN18.2 cells, LDH: max (% cytotoxity) (run C) [3]: 21.1%
CDC on CT26 CLDN18.2 cells, LDH: EC50 (run A) [3]: 11.5 nM
CDC on CT26 CLDN18.2 cells, LDH: EC50 (run B) [3]: 10.7 nM
CDC on CT26 CLDN18.2 cells, LDH: EC50 (run C) [3]: 11.9 nM
CDC on CT26 CLDN18.2 cells, LDH: max (% cytotoxity) (run A) [3]: 72.5%
CDC on CT26 CLDN18.2 cells, LDH: max (% cytotoxity) (run B) [3]: 54.7%
CDC on CT26 CLDN18.2 cells, LDH: max (% cytotoxity) (run C) [3]: 51.6%
CDC on KATOIII CLDN18.2 cells, LDH: EC50 (run A) [3]: 38.1 nM
CDC on KATOIII CLDN18.2 cells, LDH: EC50 (run B) [3]: 22.7 nM
CDC on KATOIII CLDN18.2 cells, LDH: EC50 (run C) [3]: 27.5 nM
CDC on KATOIII CLDN18.2 cells, LDH: max (% cytotoxity) (run A) [3]: 29.7%
CDC on KATOIII CLDN18.2 cells, LDH: max (% cytotoxity) (run B) [3]: 46%
CDC on KATOIII CLDN18.2 cells, LDH: max (% cytotoxity) (run C) [3]: 34.9%
EC50 (read off the curve) [4]: 0.8 µg/mL

The remaining lines, values ahead:

Kd [1]: 3.8 nM
Kd [2]: 1.11 nM
koff [2]: 0.000591 s⁻¹
kon [2]: 532000 M⁻¹ s⁻¹
B2: YL-G2-C (antibody, human IgG1, kappa)
heavy: QIQLVQSGPELRKPGETVKISCKASGFPFTTDGMSWVKQAPGKGLKWMGWINTYSGVPTYADDFKGRVAFSLETSASTAYLQIKNLKNEDTATYFCARFRRGNALDNWGQGTSVTVSSASTKGPSVFPLAPSSKSTSGGTAALGCLVKDYFPEPVTVSWNSGALTSGVHTFPAVLQSSGLYSLSSVVTVPSSSLGTQTYICNVNHKPSNTKVDKRVEPKSCDKTHTCPPCPAPELVGGPSVFLLPPKPKDTLMISRTPEVTCVVVDVSHEDPEVKFNWYVDGVEVHNAKTKPPEEQYNSTLRVVSVLTVLHQDWLNGKEYKCKVSNKALPAPIEKTISKAKGQPREPQVYTLPPSREEMTKNQVSLTCLVKGFYPSDIAVEWESNGQPENNYKTTPLVLDSDGSFFLYSKLTVDKSRWQQGNVFSCSVMHEALHNHYTQKSLSLSPGK
light: B1 light with R45K, V66D, V91I, A97N, I99F, T106A, K109R

Kd [1]: 6.4 nM
Kd [2]: 1.02 nM
koff [2]: 0.000722 s⁻¹
kon [2]: 707000 M⁻¹ s⁻¹
B3: YL-G2-D (antibody, human IgG1, kappa)
heavy: QLQQSGPELEKPGASVKISCKASGYSFTGYKMNWVKQSNGESLEWIGNIDPYYGDTTYTQKFKGKATFTVDTSSSTAYMQLKSLTSEDSAVYFCARYNRGNTMDYWGQGTSVTVSSASTKGPSVFPLAPSSKSTSGGTAALGCLVKDYFPEPVTVSWNSGALTSGVHTFPAVLQSSGLYSLSSVVTVPSSSLGTQTYICNVNHKPSNTKVDKRVEPKSCDKTHTCPPCPAPELVGGPSVFLLPPKPKDTLMISRTPEVTCVVVDVSHEDPEVKFNWYVDGVEVHNAKTKPPEEQYNSTLRVVSVLTVLHQDWLNGKEYKCKVSNKALPAPIEKTISKAKGQPREPQVYTLPPSREEMTKNQVSLTCLVKGFYPSDIAVEWESNGQPENNYKTTPLVLDSDGSFFLYSKLTVDKSRWQQGNVFSCSVMHEALHNHYTQKSLSLSPGK
light: B1 light with M21L, T75A, Y93F, I99F, K113R

From US20250263481A1
